Source: US20100158968A1 (published 2010)
Read-outs that look alike come from different tables or passages of the source.

Tests used:
[1] = biological target: T1, mitogen-activated protein kinase-activated protein kinase 2 (human MK2) (human, UniProt P49137 46-400); test: kinase inhibition, radiometric assay
[2] = biological target: T1, mitogen-activated protein …; test: kinase inhibition, radiometric assay; remark: listed apart in the source

T1 sequence (P49137 46-400): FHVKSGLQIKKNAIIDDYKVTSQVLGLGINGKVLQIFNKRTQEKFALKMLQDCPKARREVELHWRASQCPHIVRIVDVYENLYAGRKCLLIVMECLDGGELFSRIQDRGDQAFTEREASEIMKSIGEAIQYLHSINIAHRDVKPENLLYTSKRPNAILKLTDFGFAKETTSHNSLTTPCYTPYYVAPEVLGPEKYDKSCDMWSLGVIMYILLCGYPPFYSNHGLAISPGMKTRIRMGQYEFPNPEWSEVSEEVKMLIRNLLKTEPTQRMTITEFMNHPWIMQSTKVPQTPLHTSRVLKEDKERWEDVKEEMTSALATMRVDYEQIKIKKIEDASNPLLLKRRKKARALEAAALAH

Binder	IC50 [1] [µM]	IC50 [2] [µM]
KKKALNRQLGVAA	31.2	
YARAAARQARA	> 1000	
KAFAKLAARLYRKALARQLGVAA		4.43
